Values of other authors, collected in PMC3514653 (Neuromodulation : journal of the International …, 2012).

Conditions: dog, in vivo; cited from earlier work

B1: BDNF: large growth factor (27 KDa); recombinant-methionyl human brain-derived neurotrophic factor (protein, UniProt P23560 19-247, looked up)
Neurotrophic factor BDNF …: APMKEANIRGQGGLAYPGVRTHGTLESVNGPKAGSRGLTSLADTFEHVIEELLDEDQKVRPNEENNKDADLYTSRVMLSSQVPLEPPLLFLLEEYKNYLDAANMSMRVRRHSDPARRGELSVCDSISEWVTAADKKTAVDMSGGTVTVLEKVPVSKGQLKQYFYETKCNPMGYTKEGCRGIDKRHWNSQCRTTQSYVRALTMDSKKRIGWRFIRIDTSCVCTLTIKRGR
modifications: N-terminal methionine
  Clearance from the CSF (half-life): 42 min
